# In paper PMC3507880, “Rationale-Based Engineering of a Potent Long-Acting FGF21 Analog for the Treatment of Type 2 Diabetes” (PLoS ONE, 2012):
# Substitutions are numbered along the chain they refer to.
# B1: Fc-FGF21(RG) (protein)
# chain: HPIPDSSPLLQFGGQVRQRYLYTDDAQQTEAHLEIREDGTVGGAADQSPESLLQLKALKPGVIQILGVKTSRFLCQRPDGALYGSLHFDPEACSFRERLLEDGYNVYQSEAHGLPLHLPGNKSPHRDPAPRGPARFLPLPGLPPALPEPPGILAPQPPDVGSSDPLSMVGGSQGRSPSYAS
# B2: Fc-FGF21 (N-terminal Fc fusion of human mature FGF21, wild type) (Fc fusion, UniProt Q9NSA1 29-209, looked up)
# chain: B1 chain with R98L, G171P
# B3: wild type human mature FGF21 (protein)
# chain: B1 chain with R98L, G171P
# Assays:
# Q9NSA1 = test: SEC; SEC-HPLC (Bio-Sil SEC-250, 2x PBS with 2% isopropyl alcohol); 65 mg/ml in 10 mM potassium phosphate, 5% sorbitol, pH 8.0; stored at 25°C or 4°C for 2 to 9 days; high molecular weight species as % of total
# human βKlotho = molecular target: T1, human βKlotho (human, UniProt Q86Z14 1-996); test: cell-based or functional assay
# T1 sequence (looked up): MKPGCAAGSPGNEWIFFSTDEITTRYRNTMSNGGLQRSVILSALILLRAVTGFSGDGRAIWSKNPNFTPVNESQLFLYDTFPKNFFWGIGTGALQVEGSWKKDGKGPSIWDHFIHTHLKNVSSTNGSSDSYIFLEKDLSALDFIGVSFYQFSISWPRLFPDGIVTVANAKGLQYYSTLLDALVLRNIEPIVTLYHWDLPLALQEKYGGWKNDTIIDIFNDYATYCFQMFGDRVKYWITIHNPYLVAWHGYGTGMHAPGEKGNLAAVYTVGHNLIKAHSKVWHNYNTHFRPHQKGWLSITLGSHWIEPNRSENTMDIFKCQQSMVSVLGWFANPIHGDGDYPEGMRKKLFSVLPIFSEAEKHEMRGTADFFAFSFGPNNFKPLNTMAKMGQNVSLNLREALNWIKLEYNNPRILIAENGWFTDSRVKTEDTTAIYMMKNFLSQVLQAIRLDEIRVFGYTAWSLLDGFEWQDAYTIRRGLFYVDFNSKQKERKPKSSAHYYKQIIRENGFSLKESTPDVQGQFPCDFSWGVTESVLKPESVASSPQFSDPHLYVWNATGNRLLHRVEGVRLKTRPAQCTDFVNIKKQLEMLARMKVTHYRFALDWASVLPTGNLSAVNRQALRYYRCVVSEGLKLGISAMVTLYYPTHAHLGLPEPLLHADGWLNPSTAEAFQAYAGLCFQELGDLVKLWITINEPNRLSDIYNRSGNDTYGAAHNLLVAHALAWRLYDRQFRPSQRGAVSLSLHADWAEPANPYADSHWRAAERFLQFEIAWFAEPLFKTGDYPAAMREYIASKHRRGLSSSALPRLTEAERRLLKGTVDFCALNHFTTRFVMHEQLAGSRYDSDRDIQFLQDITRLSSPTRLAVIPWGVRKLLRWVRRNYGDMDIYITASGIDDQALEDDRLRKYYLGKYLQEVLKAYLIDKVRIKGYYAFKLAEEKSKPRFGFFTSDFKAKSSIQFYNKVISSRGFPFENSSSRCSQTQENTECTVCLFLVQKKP
Binder,"aggregates, percent of total, over 9 days (Q9NSA1)",Elk1-dependent luciferase reporter in 293T cells stably overexpressing human βKlotho or CHO cells overexpressing human βKlotho and human FGFR1c; maximal activity relative to native FGF21 (human βKlotho) [%],"high molecular aggregates, percent of total, day 5 (Q9NSA1)"
B1,the amount of aggregates remained below 3% at all tested conditions,,
B2,,~80,"the high molecular aggregates accounted for 50% and 25% of total native FGF21 and Fc-FGF21, respectively"
B3,,,"the high molecular aggregates accounted for 50% and 25% of total native FGF21 and Fc-FGF21, respectively"
